Measured values published in the RNAGym collection of RNA variant scans (doi:10.1073/pnas.2313332121).

B1: TPR t1 (parent)
chain: GACCAAUCUGCCCUCAGAGCUCGAGAACAUCUUCGGAUGCAGAGGAGGCAGGCUUCGGUGGCGCGAUAGCGCCAACGUCCUCAACCUCCAAUGCAUCCCACCACAUGAUGAUGCCUGAAGAGCCUUGGUUUUUUG

Variants of: B1
Experiment: polymerase ribozyme fitness, log enrichment relative to wild type (log ratio); higher = more active; in vitro selection for triplet polymerase activity
Outline: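 Streptavidin-bead capture of gel-excised extended constructs, followed by RT-PCR, closed a single triplicate in vitro selection round. That round began by annealing PCR-built, transcribed mutant libraries of each subunit of a heterodimeric triplet polymerase ribozyme with a biotinylated primer, the partner subunit and triplets, then incubating them frozen at −7 °C. After Illumina sequencing of inputs and outputs, genotypes needed ≥10 input reads and ≥1 read per output. Fitness is the base-2 logarithm of genotype enrichment over wild-type enrichment, using inverse-variance-weighted replicate averages.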

Q: Which “polymerase ribozyme fitness (log ratio)” value does the source give for GACCAAUCUGCCCUCAGAGCUCGAGAACAUCUUCGGAUGCAGAGGAGGCAGGCUUCGGUGGCGCGAUAGCGCCAACGUCCUCAACCUCCAAUGCAUCCCACCACAUGAUGAUGCCUGAAGCGCCUUGGAUUUUUG [A121C U129A] here?
A: -1.04

Q: Which “polymerase ribozyme fitness (log ratio)” value does the source give for GACCAAUCUGCCCUCAGAGCUCGAGAACAUCUUCGGAUGCAGAGGAGGCAGGCUUCGGUGGCGCGAUAGCGCCAACGUCCUCAACCUCCAAUGCAUCCCACCACAUGAUGAUGCCUUAAGAGCCUUGGUUUUUUU [G117U G135U] here?
A: -1.25

Q: For GACCAAUCUGCCCUCAGAGCUCGAGAACAUCUUCGGAUGCAGAGGAGGCAGGCUUCGGUGGCGCGAUAGCGCCAACGUCCUCAACCUCCAAUGCAUCCCACCACAUGAUGAUGCCUGUAAAGCCUUGGUUUUUUG [A118U G120A], which “polymerase ribozyme fitness (log ratio)” value is on record?
A: -0.267

Q: Which “polymerase ribozyme fitness (log ratio)” value does the source give for GACCAAUCUGCCCUCAGAGCUCGAGAACAUCUUCGGAUGCAGAGGAGGCAGGCUUCGGUGGCGCGAUAGCGCCAACGUCCUCAACCUCCAAUGCAUCCCACCACAUGAUGAUGCCUGAAAAGUCUUGGUUUUUUG [G120A C123U] here?
A: 1.96

Q: With GACCAAUCUGCCCUCAGAGCUCGAGAACAUCUUCGGAUGCAGAGGAGGCAGGCUUCGGUGGCGCGAUAGCGCCAACGUCCUCAACCUCCAAUGCAUCCCACCACAUGAUGAUGCCUGAAGUGCCUUGGUUUUAUG [A121U U133A] as the variant, how does the “polymerase ribozyme fitness (log ratio)” value read?
A: 1.83

Q: For GACCAAUCUGCCCUCAGAGCUCGAGAACAUCUUCGGAUGCAGAGGAGGCAGGCUUCGGUGGCGCGAUAGCGCCAACGUCCUCAACCUCCAAUGCAUCCCACCACAUGAUGAUGCCUGAAUAGCCUUGGUUUAUUG [G120U U132A], which “polymerase ribozyme fitness (log ratio)” value is on record?
A: 0.126

Q: For GACCAAUCUGCCCUCAGAGCUCGAGAACAUCUUCGGAUGCAGAGGAGGCAGGCUUCGGUGGCGCGAUAGCGCCAACGUCCUCAACCUCCAAUGCAUCCCACCACAUGAUGAUGCCUGAAUAGCUUUGGUUUUUUG [G120U C124U], which “polymerase ribozyme fitness (log ratio)” value is on record?
A: 1.38

Q: For GACCAAUCUGCCCUCAGAGCUCGAGAACAUCUUCGGAUGCAGAGGAGGCAGGCUUCGGUGGCGCGAUAGCGCCAACGUCCUCAACCUCCAAUGCAUCCCACCACAUGAUGAUGCCUGAAGCGCCUAGGUUUUUUG [A121C U126A], which “polymerase ribozyme fitness (log ratio)” value is on record?
A: 0.358

Q: With GACCAAUCUGCCCUCAGAGCUCGAGAACAUCUUCGGAUGCAGAGGAGGCAGGCUUCGGUGGCGCGAUAGCGCCAACGUCCUCAACCUCCAAUGCAUCCCACCACAUGAUGAUGCCUGAAGUGCUUUGGUUUUUUG [A121U C124U] as the variant, how does the “polymerase ribozyme fitness (log ratio)” value read?
A: 2.15

Q: With GACCAAUCUGCCCUCAGAGCUCGAGAACAUCUUCGGAUGCAGAGGAGGCAGGCUUCGGUGGCGCGAUAGCGCCAACGUCCUCAACCUCCAAUGCAUCCCACCACAUGAUGAUGCCUUAAGAGCCUUGGGUUUUUG [G117U U129G] as the variant, how does the “polymerase ribozyme fitness (log ratio)” value read?
A: -4.23

Q: For GACCAAUCUGCCCUCAGAGCUCGAGAACAUCUUCGGAUGCAGAGGAGGCAGGCUUCGGUGGCGCGAUAGCGCCAACGUCCUCAACCUCCAAUGCAUCCCACCACAUGAUGAUGCCUGAAAAGCCUUGGUUUUUUC [G120A G135C], which “polymerase ribozyme fitness (log ratio)” value is on record?
A: 0.457

Q: With GACCAAUCUGCCCUCAGAGCUCGAGAACAUCUUCGGAUGCAGAGGAGGCAGGCUUCGGUGGCGCGAUAGCGCCAACGUCCUCAACCUCCAAUGCAUCCCACCACAUGAUGAUGCCUCAAUAGCCUUGGUUUUUUG [G117C G120U] as the variant, how does the “polymerase ribozyme fitness (log ratio)” value read?
A: -4.51

Q: Which “polymerase ribozyme fitness (log ratio)” value does the source give for GACCAAUCUGCCCUCAGAGCUCGAGAACAUCUUCGGAUGCAGAGGAGGCAGGCUUCGGUGGCGCGAUAGCGCCAACGUCCUCAACCUCCAAUGCAUCCCACCACAUGAUGAUGCCUCAAGAGCCUGGGUUUUUUG [G117C U126G] here?
A: -3.22

Q: For GACCAAUCUGCCCUCAGAGCUCGAGAACAUCUUCGGAUGCAGAGGAGGCAGGCUUCGGUGGCGCGAUAGCGCCAACGUCCUCAACCUCCAAUGCAUCCCACCACAUGAUGAUGCCUGACGUGCCUUGGUUUUUUG [A119C A121U], which “polymerase ribozyme fitness (log ratio)” value is on record?
A: -1.38

Q: For GACCAAUCUGCCCUCAGAGCUCGAGAACAUCUUCGGAUGCAGAGGAGGCAGGCUUCGGUGGCGCGAUAGCGCCAACGUCCUCAACCUCCAAUGCAUCCCACCACAUGAUGAUGCCUGAAGGGCCAUGGUUUUUUG [A121G U125A], which “polymerase ribozyme fitness (log ratio)” value is on record?
A: 2.32

Q: With GACCAAUCUGCCCUCAGAGCUCGAGAACAUCUUCGGAUGCAGAGGAGGCAGGCUUCGGUGGCGCGAUAGCGCCAACGUCCUCAACCUCCAAUGCAUCCCACCACAUGAUGAUGCCUGAAGCGCCUUAUUUUUUUG [A121C G127A G128U] as the variant, how does the “polymerase ribozyme fitness (log ratio)” value read?
A: -0.559

Q: Which “polymerase ribozyme fitness (log ratio)” value does the source give for GACCAAUCUGCCCUCAGAGCUCGAGAACAUCUUCGGAUGCAGAGGAGGCAGGCUUCGGUGGCGCGAUAGCGCCAACGUCCUCAACCUCCAAUGCAUCCCACCACAUGAUGAUGCCUUAUGAGCCUUGGUUUUUUG [G117U A119U] here?
A: -3.92

Q: Which “polymerase ribozyme fitness (log ratio)” value does the source give for GACCAAUCUGCCCUCAGAGCUCGAGAACAUCUUCGGAUGCAGAGGAGGCAGGCUUCGGUGGCGCGAUAGCGCCAACGUCCUCAACCUCCAAUGCAUCCCACCACAUGAUGAUGCCUGAAUAGACUUGGUUUUUUG [G120U C123A] here?
A: -0.201

Q: For GACCAAUCUGCCCUCAGAGCUCGAGAACAUCUUCGGAUGCAGAGGAGGCAGGCUUCGGUGGCGCGAUAGCGCCAACGUCCUCAACCUCCAAUGCAUCCCACCACAUGAUGAUGCCUGAACUGCCUUGGUUUUUUG [G120C A121U], which “polymerase ribozyme fitness (log ratio)” value is on record?
A: 2.44

Q: Which “polymerase ribozyme fitness (log ratio)” value does the source give for GACCAAUCUGCCCUCAGAGCUCGAGAACAUCUUCGGAUGCAGAGGAGGCAGGCUUCGGUGGCGCGAUAGCGCCAACGUCCUCAACCUCCAAUGCAUCCCACCACAUGAUGAUGCCUUAAGAGCCUUGGUUGUUUG [G117U U131G] here?
A: -4.64

Q: With GACCAAUCUGCCCUCAGAGCUCGAGAACAUCUUCGGAUGCAGAGGAGGCAGGCUUCGGUGGCGCGAUAGCGCCAACGUCCUCAACCUCCAAUGCAUCCCACCACAUGAUGAUGCCUGAACAGCUUUGGUUUUUUG [G120C C124U] as the variant, how does the “polymerase ribozyme fitness (log ratio)” value read?
A: 1.74
